What was measured:
[1] = biological target: human complement C1r, zymogen form (human) (UniProt P00736)
[2] = biological target: Borrelia hermsii strain HS1 FbpC C-terminal domain, residues 212-374 (Borrelia hermsii strain HS1); test: SPR; FbpC-C, FbpC-C R248A or FbpC-C H252A immobilised by amine coupling on a CMD200 chip (1138.2, 975.2, 1082 RU); zymogen or active C1r injected, single-cycle five-fold dilution series 0.16 to 100 nM; Biacore T200, 25 °C, 30 μl/min; HBS-T (10 mM Hepes pH 7.3, 140 mM NaCl, 0.005% Tween 20) with 5 mM CaCl2; kinetic fits, triplicate
[3] = biological target: Borrelia hermsii strain HS1 FbpC C-terminal domain, residues 212-374, R248A (Borrelia hermsii strain HS1); test: as above
[4] = biological target: Borrelia hermsii strain HS1 FbpC C-terminal domain, residues 212-374, H252A (Borrelia hermsii strain HS1); test: as above

Molecule “Borrelia hermsii strain HS1 FbpC C-terminal domain, residues 212-374 (domain or fragment)” has a CP hemolysis of presensitized sheep erythrocytes (2% normal human serum), IC50 [1] of 320 nM and a CP-specific complement ELISA (C4b deposition, 2% normal human serum), IC50 [1] of 8.6 nM.

In the case of “Borrelia hermsii strain HS1 FbpC C-terminal domain, residues 212-374, R248A (domain or fragment)”, the CP hemolysis of presensitized sheep erythrocytes (2% normal human serum), IC50 [1] is reported as 1200 nM and the CP-specific complement ELISA (C4b deposition, 2% normal human serum), IC50 [1] is reported as 23 nM.

For “Borrelia hermsii strain HS1 FbpC C-terminal domain, residues 212-374, H252A (domain or fragment)”, the CP-specific complement ELISA (C4b deposition, 2% normal human serum), IC50 [1] was 300 nM.

B1: human complement C1r, zymogen form (enzyme)
chain: SIPIPQKLFGEVTSPLFPKPYPNNFETTTVITVPTGYRVKLVFQQFDLEPSEGCFYDYVKISADKKSLGRFCGQLGSPLGNPPGKKEFMSQGNKMLLTFHTDFSNEENGTIMFYKGFLAYYQAVDLDECASRSKSGEEDPQPQCQHLCHNYVGGYFCSCRPGYELQEDTHSCQAECSSELYTEASGYISSLEYPRSYPPDLRCNYSIRVERGLTLHLKFLEPFDIDDHQQVHCPYDQLQIYANGKNIGEFCGKQRPPDLDTSSNAVDLLFFTDESGDSRGWKLRYTTEIIKCPQPKTLDEFTIIQNLQPQYQFRDYFIATCKQGYQLIEGNQVLHSFTAVCQDDGTWHRAMPRCKIKDCGQPRNLPNGDFRYTTTMGVNTYKARIQYYCHEPYYKMQTRAGSRESEQGVYTCTAQGIWKNEQKGEKIPRCLPVCGKPVNPVEQRQRIIGGQKAKMGNFPWQVFTNIHGRGGGALLGDRWILTAAHTLYPKEHEAQSNASLDVFLGHTNVEELMKLGNHPIRRVSVHPDYRQDESYNFEGDIALLELENSVTLGPNLLPICLPDNDTFYDLGLMGYVSGFGVMEEKIAHDLRFVRLPVANPQACENWLRGKNRMDVFSQNMFCAGHPSLKQDACQGDSGGVFAVRDPNTDRWVATGIVSWGIGCSRGYGFYTKVLNYVDWIKKEMEEED
B1 was tested, and the Kd [2] was 1.2 nM, the koff [2] was 5.4e-05 s⁻¹ and the kon [2] was 44000 M⁻¹ s⁻¹. The Kd [3] was 13 nM, the koff [3] was 0.00063 s⁻¹ and the kon [3] was 69000 M⁻¹ s⁻¹.

B2: human complement C1r, activated form (enzyme)
chain: SIPIPQKLFGEVTSPLFPKPYPNNFETTTVITVPTGYRVKLVFQQFDLEPSEGCFYDYVKISADKKSLGRFCGQLGSPLGNPPGKKEFMSQGNKMLLTFHTDFSNEENGTIMFYKGFLAYYQAVDLDECASRSKSGEEDPQPQCQHLCHNYVGGYFCSCRPGYELQEDTHSCQAECSSELYTEASGYISSLEYPRSYPPDLRCNYSIRVERGLTLHLKFLEPFDIDDHQQVHCPYDQLQIYANGKNIGEFCGKQRPPDLDTSSNAVDLLFFTDESGDSRGWKLRYTTEIIKCPQPKTLDEFTIIQNLQPQYQFRDYFIATCKQGYQLIEGNQVLHSFTAVCQDDGTWHRAMPRCKIKDCGQPRNLPNGDFRYTTTMGVNTYKARIQYYCHEPYYKMQTRAGSRESEQGVYTCTAQGIWKNEQKGEKIPRCLPVCGKPVNPVEQRQRIIGGQKAKMGNFPWQVFTNIHGRGGGALLGDRWILTAAHTLYPKEHEAQSNASLDVFLGHTNVEELMKLGNHPIRRVSVHPDYRQDESYNFEGDIALLELENSVTLGPNLLPICLPDNDTFYDLGLMGYVSGFGVMEEKIAHDLRFVRLPVANPQACENWLRGKNRMDVFSQNMFCAGHPSLKQDACQGDSGGVFAVRDPNTDRWVATGIVSWGIGCSRGYGFYTKVLNYVDWIKKEMEEED
With B2 the Kd [4] was 2.4 nM, the koff [4] was 0.00012 s⁻¹ and the kon [4] was 51000 M⁻¹ s⁻¹. It also gave a Kd [2] of 0.3 nM, a koff [2] of 1.4e-05 s⁻¹ and a kon [2] of 48000 M⁻¹ s⁻¹. For the same molecule, the Kd [3] was 0.19 nM, the koff [3] was 9.4e-06 s⁻¹ and the kon [3] was 45000 M⁻¹ s⁻¹.

From paper PMC10413161
